Measurements: patent publication US20110008774A1

Molecular target: β-galactosidase (β-gal, Sigma) (E. coli) [β-galactosidase: P00722]
Test: panning of mixtures with wt scFv13-SecM17 ARM complexes in 10:1, 100:1, 1,000:1 or 10,000:1 excess on immobilized β-gal; 10 clones sequenced per mixture

β-galactosidase (β-gal, Sigma) (E. coli) [β-galactosidase: P00722], sequence (P00722 2-1024 limits assumed): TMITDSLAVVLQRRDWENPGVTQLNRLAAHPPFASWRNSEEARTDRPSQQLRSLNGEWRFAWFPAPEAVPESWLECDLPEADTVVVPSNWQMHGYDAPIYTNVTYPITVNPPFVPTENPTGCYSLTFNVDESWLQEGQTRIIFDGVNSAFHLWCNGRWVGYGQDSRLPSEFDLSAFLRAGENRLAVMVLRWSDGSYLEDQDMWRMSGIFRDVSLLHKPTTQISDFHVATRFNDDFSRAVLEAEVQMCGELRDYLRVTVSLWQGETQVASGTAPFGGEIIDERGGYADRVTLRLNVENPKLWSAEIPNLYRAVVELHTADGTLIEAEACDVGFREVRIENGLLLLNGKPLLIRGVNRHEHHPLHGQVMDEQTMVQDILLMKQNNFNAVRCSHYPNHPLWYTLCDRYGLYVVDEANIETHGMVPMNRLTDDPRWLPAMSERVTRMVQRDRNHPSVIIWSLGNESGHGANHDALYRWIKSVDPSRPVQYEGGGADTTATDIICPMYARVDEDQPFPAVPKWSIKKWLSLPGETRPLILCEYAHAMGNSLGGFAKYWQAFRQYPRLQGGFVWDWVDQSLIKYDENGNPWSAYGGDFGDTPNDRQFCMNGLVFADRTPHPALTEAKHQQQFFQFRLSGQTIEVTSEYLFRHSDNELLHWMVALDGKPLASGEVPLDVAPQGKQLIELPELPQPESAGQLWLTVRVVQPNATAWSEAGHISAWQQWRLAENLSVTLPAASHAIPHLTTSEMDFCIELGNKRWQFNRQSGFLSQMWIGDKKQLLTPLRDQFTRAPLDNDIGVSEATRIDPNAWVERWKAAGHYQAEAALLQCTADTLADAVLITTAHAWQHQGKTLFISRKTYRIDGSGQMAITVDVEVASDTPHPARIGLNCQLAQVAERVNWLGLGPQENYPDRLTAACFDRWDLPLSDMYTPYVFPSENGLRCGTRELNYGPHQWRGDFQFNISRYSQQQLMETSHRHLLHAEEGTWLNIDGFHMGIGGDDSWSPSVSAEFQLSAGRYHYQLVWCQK

share of sequenced clones recovered after panning: 100%
Substance: scFv13-R4-SecM17 fusion
